Ends that are not written are not given here.

The values that follow come from patent publication US20260049140A1 (JANUX THERAPEUTICS, published 2026).

The target in assay [1] is T1, human CD3ε-biotin (human, UniProt P07766 23-126, limits assumed, biotinylated (site not stated)).
T1 construct: also called CD3E-bio; CD3E-biotin
In words: BLI (Octet), human CD3ε-biotin 10 nM on sensor, 50 nM TCE. (Biolayer interferometry detects binding as a change in optical thickness at a sensor tip.)

The target of assay [2] is T1, human CD3ε-biotin. In words: BLI (Octet), summary table.
The next assay deals with T2, TCE-1.
T2 construct: anti-CD3 scFv wt fused to anti-TROP2 Fab HC wt
In words: competition ELISA: peptide titrated and pre-incubated with a constant concentration of TCE-1; TCE-1 bound to plate-captured biotinylated CD3 is detected (blocked ligand: CD3).

The target of a further assay is T3, TCE-19.
T3 construct: anti-CD3 scFv W233A; anti-TROP2 Fab wt; also called 3091
In words: competition ELISA, peptide titrated vs TCE binding to captured CD3. On the technique in general: In an ELISA, binding on a coated surface is turned into a signal by an enzyme label.

B1: TCE-14 (anti-CD3 scFv Y111A; anti-TROP2 HC wt) (bispecific antibody)
light: DIQLTQSPSSLSASVGDRVSITCKASQDVSIAVAWYQQKPGKAPKLLIYSASYRYTGVPDRFSGSGSGTDFTLTISSLQPEDFAVYYCQQHYITPLTFGAGTKVEIKRTVAAPSVFIFPPSDEQLKSGTASVVCLLNNFYPREAKVQWKVDNALQSGNSQESVTEQDSKDSTYSLSSTLTLSKADYEKHKVYACEVTHQGLSSPVTKSFNRGEC
heavy: not shown
notes: scFv-Fab; the entry already carries the mutation; also called 3086
B1: in the assay with human CD3ε-biotin [1], the Response was -0.0009.

B2: TCE-19 (anti-CD3 scFv W233A; anti-TROP2 HC wt) (bispecific antibody)
light: DIQLTQSPSSLSASVGDRVSITCKASQDVSIAVAWYQQKPGKAPKLLIYSASYRYTGVPDRFSGSGSGTDFTLTISSLQPEDFAVYYCQQHYITPLTFGAGTKVEIKRTVAAPSVFIFPPSDEQLKSGTASVVCLLNNFYPREAKVQWKVDNALQSGNSQESVTEQDSKDSTYSLSSTLTLSKADYEKHKVYACEVTHQGLSSPVTKSFNRGEC
heavy: not shown
notes: scFv-Fab; the entry already carries the mutation; also called 3091
The term Kd denotes the constant that tells how readily two partners part at equilibrium. For the molecule B2, in the assay with human CD3ε-biotin [2], the “CD3 t1/2” value is 6.45 min and the affinity, expressed as Kd, was 12.3 nM. Further, in the assay with human CD3ε-biotin [1], the Kd is 12.3 nM and the Response worked out at 0.414.

B3: TCE-18 (anti-CD3 scFv L232A; anti-TROP2 HC wt) (bispecific antibody)
light: DIQLTQSPSSLSASVGDRVSITCKASQDVSIAVAWYQQKPGKAPKLLIYSASYRYTGVPDRFSGSGSGTDFTLTISSLQPEDFAVYYCQQHYITPLTFGAGTKVEIKRTVAAPSVFIFPPSDEQLKSGTASVVCLLNNFYPREAKVQWKVDNALQSGNSQESVTEQDSKDSTYSLSSTLTLSKADYEKHKVYACEVTHQGLSSPVTKSFNRGEC
heavy: not shown
notes: scFv-Fab; the entry already carries the mutation
In the case of B3, in the assay with human CD3ε-biotin [2], the “CD3 Octet response” value amounted to 0.66, the “CD3 t1/2” value came to 2.64 min and the Kd is 8.39 nM. In the assay with human CD3ε-biotin [1], this molecule had a Kd of 8.39 nM and a Response of 0.663.

B4: TCE-28 (anti-CD3 scFv N30Q, I109V, G172A, V231A; anti-TROP2 HC wt) (bispecific antibody)
light: DIQLTQSPSSLSASVGDRVSITCKASQDVSIAVAWYQQKPGKAPKLLIYSASYRYTGVPDRFSGSGSGTDFTLTISSLQPEDFAVYYCQQHYITPLTFGAGTKVEIKRTVAAPSVFIFPPSDEQLKSGTASVVCLLNNFYPREAKVQWKVDNALQSGNSQESVTEQDSKDSTYSLSSTLTLSKADYEKHKVYACEVTHQGLSSPVTKSFNRGEC
heavy: not shown
notes: scFv-Fab; the entry already carries the mutations; also called 3100
Turning to B4, in the assay with human CD3ε-biotin [1], the Kd was found to be 9.11 nM and the Response is 0.931.

B5: TCE-17 (anti-CD3 scFv V231A; anti-TROP2 HC wt) (bispecific antibody)
light: DIQLTQSPSSLSASVGDRVSITCKASQDVSIAVAWYQQKPGKAPKLLIYSASYRYTGVPDRFSGSGSGTDFTLTISSLQPEDFAVYYCQQHYITPLTFGAGTKVEIKRTVAAPSVFIFPPSDEQLKSGTASVVCLLNNFYPREAKVQWKVDNALQSGNSQESVTEQDSKDSTYSLSSTLTLSKADYEKHKVYACEVTHQGLSSPVTKSFNRGEC
heavy: not shown
notes: as for B3
Consider B5, for which, in the assay with human CD3ε-biotin [2], the “CD3 t1/2” value was determined as 2.96 min and the Kd is 6.26 nM. For the same molecule, binding with human CD3ε-biotin [1] was characterised by a dissociation constant (Kd) of 6.26 nM.

B6: TCE-20 (anti-CD3 scFv Y234A; anti-TROP2 HC wt) (bispecific antibody)
light: DIQLTQSPSSLSASVGDRVSITCKASQDVSIAVAWYQQKPGKAPKLLIYSASYRYTGVPDRFSGSGSGTDFTLTISSLQPEDFAVYYCQQHYITPLTFGAGTKVEIKRTVAAPSVFIFPPSDEQLKSGTASVVCLLNNFYPREAKVQWKVDNALQSGNSQESVTEQDSKDSTYSLSSTLTLSKADYEKHKVYACEVTHQGLSSPVTKSFNRGEC
heavy: not shown
notes: as for B3
For B6, in the assay with human CD3ε-biotin [2], the “CD3 Octet response” value was found to be 0.67, the “CD3 t1/2” value came to 1.66 min and the Kd stood at 11.1 nM. In the assay with human CD3ε-biotin [1], the Kd was 11.1 nM and the Response worked out at 0.674.

B7: TCE-22 (anti-CD3 scFv N236A; anti-TROP2 HC wt) (bispecific antibody)
light: DIQLTQSPSSLSASVGDRVSITCKASQDVSIAVAWYQQKPGKAPKLLIYSASYRYTGVPDRFSGSGSGTDFTLTISSLQPEDFAVYYCQQHYITPLTFGAGTKVEIKRTVAAPSVFIFPPSDEQLKSGTASVVCLLNNFYPREAKVQWKVDNALQSGNSQESVTEQDSKDSTYSLSSTLTLSKADYEKHKVYACEVTHQGLSSPVTKSFNRGEC
heavy: not shown
notes: as for B3
Consider B7, for which, in the assay with human CD3ε-biotin [2], the “CD3 Octet response” value was found to be 0.65 and the “CD3 t1/2” value stood at 2.45 min. Besides, the Response with human CD3ε-biotin [1] turned out to be 0.65.

B8: TCE-24 (anti-CD3 scFv W238A; anti-TROP2 HC wt) (bispecific antibody)
light: DIQLTQSPSSLSASVGDRVSITCKASQDVSIAVAWYQQKPGKAPKLLIYSASYRYTGVPDRFSGSGSGTDFTLTISSLQPEDFAVYYCQQHYITPLTFGAGTKVEIKRTVAAPSVFIFPPSDEQLKSGTASVVCLLNNFYPREAKVQWKVDNALQSGNSQESVTEQDSKDSTYSLSSTLTLSKADYEKHKVYACEVTHQGLSSPVTKSFNRGEC
heavy: not shown
notes: scFv-Fab; the entry already carries the mutation; also called 3096
As for B8, in the assay with human CD3ε-biotin [2], the “CD3 Octet response” value is 0.07 and the Kd is 31 nM. For the same molecule, in the assay with human CD3ε-biotin [1], binding was characterised by a dissociation constant (Kd) of 31 nM and the Response came to 0.0683.

B9: TCE-23 (anti-CD3 scFv R237A; anti-TROP2 HC wt) (bispecific antibody)
light: DIQLTQSPSSLSASVGDRVSITCKASQDVSIAVAWYQQKPGKAPKLLIYSASYRYTGVPDRFSGSGSGTDFTLTISSLQPEDFAVYYCQQHYITPLTFGAGTKVEIKRTVAAPSVFIFPPSDEQLKSGTASVVCLLNNFYPREAKVQWKVDNALQSGNSQESVTEQDSKDSTYSLSSTLTLSKADYEKHKVYACEVTHQGLSSPVTKSFNRGEC
heavy: not shown
notes: as for B3
For B9, in the assay with human CD3ε-biotin [2], the “CD3 Octet response” value turned out to be 0.73, the “CD3 t1/2” value amounted to 2.67 min and the Kd stood at 6.51 nM. In the assay with human CD3ε-biotin [1], this molecule displayed a Kd of 6.51 nM and a Response of 0.728.

B10: TCE-25 (anti-CD3 scFv V239A; anti-TROP2 HC wt) (bispecific antibody)
light: DIQLTQSPSSLSASVGDRVSITCKASQDVSIAVAWYQQKPGKAPKLLIYSASYRYTGVPDRFSGSGSGTDFTLTISSLQPEDFAVYYCQQHYITPLTFGAGTKVEIKRTVAAPSVFIFPPSDEQLKSGTASVVCLLNNFYPREAKVQWKVDNALQSGNSQESVTEQDSKDSTYSLSSTLTLSKADYEKHKVYACEVTHQGLSSPVTKSFNRGEC
heavy: not shown
notes: as for B3
For B10, in the assay with human CD3ε-biotin [2], the “CD3 Octet response” value stood at 0.74 and the “CD3 t1/2” value came out at 4.26 min. Further, the Response with human CD3ε-biotin [1] was 0.742.

B11: TCE-21 (anti-CD3 scFv S235A; anti-TROP2 HC wt) (bispecific antibody)
light: DIQLTQSPSSLSASVGDRVSITCKASQDVSIAVAWYQQKPGKAPKLLIYSASYRYTGVPDRFSGSGSGTDFTLTISSLQPEDFAVYYCQQHYITPLTFGAGTKVEIKRTVAAPSVFIFPPSDEQLKSGTASVVCLLNNFYPREAKVQWKVDNALQSGNSQESVTEQDSKDSTYSLSSTLTLSKADYEKHKVYACEVTHQGLSSPVTKSFNRGEC
heavy: not shown
notes: as for B3
With B11, in the assay with human CD3ε-biotin [2], the “CD3 Octet response” value was determined as 0.68 and binding was put at a Kd of 3.41 nM. In the assay with human CD3ε-biotin [1], the Kd was determined as 3.41 nM and the Response came to 0.682.

As a reminder, the IC50 is the concentration at which inhibition is half-maximal. Low readings indicate greater potency in that assay, high ones weaker potency in that assay. Take ASQCLGPEWEVCPY (cysteine pairing not given here; also: biotinylated when captured in ELISA, also called 1594) [Peptide-10]: in the assay with TCE-1, the “IC50 (read off the curve)” value was around 200 nM. This molecule also displayed an IC50 with TCE-19 above 100000 nM.

Molecule VYCGPEFDESVGCM (cysteine pairing not given here; also: biotinylated when captured in ELISA, also called 1443) [Peptide-3] had an IC50 with TCE-19 above 100000 nM.

B12: Peptide-8 (peptide)
peptide: AYCGPEFDESVGCM
modifications: cysteine pairing not given here; also: biotinylated when captured in binding ELISA
notes: also called 1555
As to B12, the “IC50 (read off the curve)” value with TCE-1 is around 400 nM. Also, the IC50 in the assay with TCE-19 is above 100000 nM.

B13: Peptide-9 (peptide)
peptide: VYCGPEFDESVGCA
modifications: cysteine pairing not given here; also: biotinylated when captured in binding ELISA
notes: also called 1566
On to B13, for which the IC50 in the assay with TCE-19 is above 100000 nM.
